Biological target: His-MAFB (UniProt Q9Y5Q3 1-323)
Experiment: EMSA

His-MAFB, sequence (Q9Y5Q3 whole entry): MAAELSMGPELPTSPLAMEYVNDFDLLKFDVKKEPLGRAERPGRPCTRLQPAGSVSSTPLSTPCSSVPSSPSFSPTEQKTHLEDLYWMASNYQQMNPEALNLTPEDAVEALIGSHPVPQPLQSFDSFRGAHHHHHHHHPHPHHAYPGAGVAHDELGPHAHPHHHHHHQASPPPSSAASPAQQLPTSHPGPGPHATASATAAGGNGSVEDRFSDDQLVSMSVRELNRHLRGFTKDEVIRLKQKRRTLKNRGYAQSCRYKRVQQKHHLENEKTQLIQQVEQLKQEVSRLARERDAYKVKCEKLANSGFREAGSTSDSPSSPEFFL

Binder	binding result
P31 (PRDIII-PRDI) (dsDNA) DNA 1: GAAAACTGAAAGGGAGAAGTGAAAGTG DNA 2: CACTTTCACTTCTCCCTTTCAGTTTTC	no binding
MARE (dsDNA) DNA 1: CATTTCTGCTGACTCAGCAACTTTA DNA 2: TAAAGTTGCTGAGTCAGCAGAAATG	binds

Source: publication PMC3050627
